Results taken from PMC11514443 (Structure (London, England : 1993), 2019).

Target: MORC3-CW E431A mutant (human) (UniProt Q14149)
Experiment: other fluorescence titration

Chain of MORC3-CW E431A mutant (human) (Q14149 401-455 E431A): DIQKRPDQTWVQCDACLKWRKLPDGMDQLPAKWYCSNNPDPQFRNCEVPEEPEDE

Work on “NS1 peptide trimethylated at K229 (residues 222-230 of NS1)” yielded a Kd of 57 µM.
